Assay results reported in patent EP4596582A1 (Sichuan Kelun-Biotech Biopharmaceutical Co., Ltd., dated 2025).

Target: T1, human B7-H3-2Ig on CHO-S cells (CHO-S-human B7-H3-2Ig) (human, UniProt Q5ZPR3 29-316)
T1 construct: also called CHO-S-B7-H3-2Ig
T1 sequence: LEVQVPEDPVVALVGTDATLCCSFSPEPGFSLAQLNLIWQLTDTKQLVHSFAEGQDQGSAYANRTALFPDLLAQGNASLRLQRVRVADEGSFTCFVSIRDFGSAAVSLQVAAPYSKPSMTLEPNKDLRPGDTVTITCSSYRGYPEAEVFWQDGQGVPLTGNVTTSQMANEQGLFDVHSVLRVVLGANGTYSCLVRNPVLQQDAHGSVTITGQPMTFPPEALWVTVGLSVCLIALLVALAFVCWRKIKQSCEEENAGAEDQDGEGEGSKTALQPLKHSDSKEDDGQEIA
Assay: flow cytometry on CHO-S-human B7-H3-2Ig cells

B1: anti-human-B7-H3 human antibody 2#8890 (antibody, human IgG1, kappa, V domains shown)
VH: QVQLQESGPGLVQPSGTLSLTCAVSGGSDSSTNWWTWVRQSPGQGLEWIGEISPIGFTSYSPSLRSRVTISVDKSKTQFSLKLSSVTAADTAVYYCARDRLYFAFWGQGTLVTVSS
VL: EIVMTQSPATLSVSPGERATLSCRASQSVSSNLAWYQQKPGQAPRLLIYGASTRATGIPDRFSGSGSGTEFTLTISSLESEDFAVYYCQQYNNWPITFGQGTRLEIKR
EC50: 0.0684 µg/mL
